In US10829756B2, “Discovery of enzymes from the alpha-keto acid decarboxylase family” (priority 2015, dated 2020):

Columns and labels:
Experiment in all cases: Steady-state kinetics of 2-ketoacid decarboxylase (ADH/NADH coupled)
Assay type in all cases: biochemical
Conditions in all cases: other: pH 7.5, 21° C.
CCCCCCC(=O)C(=O)O = system: CCCCCCC(=O)C(=O)O
Protocol: (§1) For the native KIVD and KIVD_VLV mutant, 2 ml overnight cultures of XL1B cells were transformed with pQE9 containing N-terminal his-tagged KIVD enzymes and grown in Terrific Broth (BP biomedical, Cat#3046-042) with 50 μg/mL of carbenicillin. (Fisher scientific, Cat# BP2648-5) For the GEOs, 2 ml overnight cultures of BLR cells were transformed with pet29b+ plasmid containing N-terminal his-tagged GEOs, and grown in Terrific Broth with 50 μg/mL of kanamycin. (Fisher scientific, Cat# BP906-5) These cultures were diluted 1:1000 in 500 mL of Terrific Broth with 1 mM MgSO4, 1% glucose, and 50ug/mL of corresponding antibiotics, then grown at 37° C. for 24 hours. Cultures were pelleted down at 4700 rpm for 10 mins and resuspended in auto-induction media (LB broth, 1 mM MgSO4, 0.1 mM TPP, 1×NPS, and 1×5052) for induction at 18° C. for 34 hours. At the end of induction, cells were centrifuged (4700 rpm, 4° C., 20 minutes), supernatant was removed, and cells were resuspended in 40 mL lysis buffer (100 mM Hepes pH 7.5, 100 mM NaCl, 10% glycerol, 0.1 mM TPP, 1 mM MgSO4, 10 mM Imidazole, 1 mM TCEP) and 1 mM PMSF) and sonicated for 2 minutes. Lysed cells were centrifuged at 4700 rpm at 4° C. for 60 mins to remove cell debris. Supernatant was loaded on gravity flow column with 700 μl of cobalt slurry (Fisher scientific, CAT# PI-90091) washed with 10 ml of wash buffer (100 mM Hepes pH 7.5, 100 mM NaCl, 10% glycerol, 0.1 mM TPP, 1 mM MgSO4, 10 mM Imidazole, and 1 mM TCEP). Cobalt bead bed was washed with 15 ml of wash buffer 5 times and proteins were eluted with 1000 μl of elution buffer (100 mM Hepes pH 7.5, 100 mM NaCl, 10% glycerol, 0.1 mM TPP, 1 mM MgSO4, 200 mM Imidazole, and 1 mM TCEP). Protein samples were immediately buffer exchanged with spin concentrators (Satorius, CAT# VS0112) into storage buffer (100 mM Hepes pH 7.5, 100 mM NaCl, 10% glycerol, 0.1 mM TPP, 1 mM MgSO4, and 1 mM TCEP) and stored at 4° C. until kinetics characterization. Protein concentrations were determined using a Synergy H1 spectrophotometer (Biotek) by measuring absorbance at 280 nm using their calculated extinction coefficients with ExPASy ProtParam Tool.^33 All other buffers and salts were purchased from Fisher Scientific unless otherwise specified.
(§2) The kcat and KM values of selective KIVD mutants were measured for the substrates: C3, C5, isoC5, and C8. All substrates were dissolved in MilliQ H2O and pH was adjusted to 7.5 as necessary. Activity was measured at 0.005 mM to 10 mM substrates. The assay was performed in a 96-well half-area plate. Each reaction contains a final concentration of 0.5 mM NADH, 1 mM DTT, 0.1 mM TPP, 1 mM MgSO4, reaction buffer (100 mM Hepes, 100 mM NaCl, 10% glycerol, pH 7.5) and ADH (Sigma Aldrich, A7011, 10 U/ml for C3, C5 and C8 reactions, 500 U/ml for isoC5 reactions). A wide range of ketoacid decarboxylase concentrations, 4.5 nM-15 μM, were used according to the activity of each enzyme toward different substrates in order to perform steady state kinetics measurement over a period of an hour. Absorbance readings were taken every 1-minute at OD340 at 21° C. for 60 minutes using the Synergy H1. Kinetic parameters (kcat and KM) were determined by fitting initial velocity versus substrate concentration data to the Michaelis-Menten equation.

CC(=O)C(=O)O = system: CC(=O)C(=O)O
Protocol: as §1, §2

CCCC(=O)C(=O)O = system: CCCC(=O)C(=O)O
Protocol: as §1, §2

CC(C)C(=O)C(=O)O = system: CC(C)C(=O)C(=O)O
Protocol: as §1, §2

“1OVM (1OVM_P23234), ketoacid decarboxylase, SEQ ID NO: 26 (Enterobacter cloacae)” showed a Km (CCCCCCC(=O)C(=O)O) of 0.021 ± 0.001 mM, a kcat (CCCCCCC(=O)C(=O)O) of 1.7 ± 0.1 s⁻¹ and a kcat/Km (CCCCCCC(=O)C(=O)O) of 80000 ± 4300 M⁻¹ s⁻¹. The Km (CC(=O)C(=O)O) was 7.5 ± 0.1 mM, the kcat (CC(=O)C(=O)O) was 0.2 ± 0.01 s⁻¹ and the kcat/Km (CC(=O)C(=O)O) was 32 ± 0.5 M⁻¹ s⁻¹. For the same substance, the Km (CCCC(=O)C(=O)O) was 0.5 ± 0.1 mM, the kcat (CCCC(=O)C(=O)O) was 1 ± 0.1 s⁻¹ and the kcat/Km (CCCC(=O)C(=O)O) was 2100 ± 420 M⁻¹ s⁻¹. It also gave a Km (CC(C)C(=O)C(=O)O) of 6.1 ± 0.6 mM, a kcat (CC(C)C(=O)C(=O)O) of 7.8 ± 0.4 s⁻¹ and a kcat/Km (CC(C)C(=O)C(=O)O) of 1300 ± 130 M⁻¹ s⁻¹.
